Experiments:
Assay in all cases: cell-based or functional assay
[1] = target: HIV-1 Env pseudovirus Du156.12 (HIV-1)
[2] = target: HIV-1 Env pseudovirus 249M B10 (HIV-1)
[3] = target: HIV-1 Env pseudovirus 6240_08_TA5_4622 (HIV-1)
[4] = target: HIV-1 Env pseudovirus CAP210.2.00.E8 (HIV-1)
[5] = target: HIV-1 Env pseudovirus CNE20 (HIV-1)
[6] = target: HIV-1 Env pseudovirus SC422661.8 (HIV-1)
[7] = target: HIV-1 Env pseudovirus CNE17 (HIV-1)
[8] = target: HIV-1 Env pseudovirus 62357_14_D3_4589 (HIV-1)
[9] = target: HIV-1 Env pseudovirus Ce703010054_2A2 (HIV-1)
[10] = target: HIV-1 Env pseudovirus PVO.4 (HIV-1)
[11] = target: HIV-1 Env pseudovirus TRJO4551.58 (HIV-1)
[12] = target: HIV-1 Env pseudovirus ZM249M.PL1 (HIV-1)
[13] = target: HIV-1 Env pseudovirus Q461.e2 (HIV-1)
[14] = target: HIV-1 Env pseudovirus CAAN5342.A2 (HIV-1)
[15] = target: HIV-1 Env pseudovirus X1632_S2_B10 (HIV-1)
[16] = target: HIV-1 Env pseudovirus X1193_c1 (HIV-1)
[17] = target: HIV-1 Env pseudovirus R2184.c04 (HIV-1)
[18] = target: HIV-1 Env pseudovirus 3016.v5.c45 (HIV-1)
[19] = target: HIV-1 Env pseudovirus C3347.c11 (HIV-1)
[20] = target: Env of HIV-1 pseudovirus HIV-0013095-2.11 (HIV-1)
[21] = target: Env of HIV-1 pseudovirus 0260.v5.c36 (HIV-1)
[22] = target: Env of HIV-1 pseudovirus 246F C1G (HIV-1)
[23] = target: Env of HIV-1 pseudovirus HIV-16055-2.3 (HIV-1)
[24] = target: Env of HIV-1 pseudovirus 1056_10_TA11_1826 (HIV-1)
[25] = target: Env of HIV-1 pseudovirus ZM233M.PB6 (HIV-1)
[26] = target: Env of HIV-1 pseudovirus 1012_11_TC21_3257 (HIV-1)
[27] = target: Env of HIV-1 pseudovirus 6535.3 (HIV-1)
[28] = target: Env of HIV-1 pseudovirus CNE17 (HIV-1)
[29] = target: Env of HIV-1 pseudovirus PVO.4 (HIV-1)
[30] = target: Env of HIV-1 pseudovirus MS208.A1 (HIV-1)
[31] = target: Env of HIV-1 pseudovirus Ce703010054_2A2 (HIV-1)
[32] = target: Env of HIV-1 pseudovirus CNE52 (HIV-1)
[33] = target: Env of HIV-1 pseudovirus Ce0682_E4 (HIV-1)
[34] = target: Env of HIV-1 pseudovirus CAAN5342.A2 (HIV-1)
[35] = target: Env of HIV-1 pseudovirus 62357_14_D3_4589 (HIV-1)
[36] = target: Env of HIV-1 pseudovirus 7030102001E5(Rev-) (HIV-1)

Substance: N49P7.2 (antibody)
- IC50 [1]: 0.058 mg/L
- IC80 [1]: 0.21 mg/L
- MPI [1]: 100
- IC50 [2]: 0.095 mg/L
- IC80 [2]: 0.349 mg/L
- MPI [2]: 100
- IC50 [3]: 0.812 mg/L
- IC80 [3]: 2.87 mg/L
- MPI [3]: 100
- IC50 [4]: 3.94 mg/L
- IC80 [4]: 21.7 mg/L
- MPI [4]: 95
- IC50 [5]: 0.119 mg/L
- IC80 [5]: 0.574 mg/L
- MPI [5]: 99
- IC50 [6]: 0.119 mg/L
- IC80 [6]: 0.564 mg/L
- MPI [6]: 100
- IC50 [7]: 0.376 mg/L
- IC80 [7]: 1.24 mg/L
- MPI [7]: 100
- IC50 [8]: 0.03 mg/L
- IC80 [8]: 0.121 mg/L
- MPI [8]: 100
- IC50 [9]: 0.124 mg/L
- IC80 [9]: 0.576 mg/L
- MPI [9]: 100
- IC50 [10]: 0.237 mg/L
- IC80 [10]: 0.831 mg/L
- MPI [10]: 100
- IC50 [11]: 0.21 mg/L
- IC80 [11]: 0.673 mg/L
- MPI [11]: 100
- IC50 [12]: 0.073 mg/L
- IC80 [12]: 0.256 mg/L
- MPI [12]: 100
- IC50 [13]: 0.472 mg/L
- IC80 [13]: 2.24 mg/L
- MPI [13]: 100
- IC50 [14]: 0.809 mg/L
- IC80 [14]: 2.81 mg/L
- MPI [14]: 100

Substance: VRC01 (antibody)
- IC50 (Titer in TZM.bl cells) [1]: 0.09 mg/L
- IC80 (Titer in TZM.bl cells) [1]: 0.193 mg/L
- IC50 (Titer in TZM.bl cells) [2]: 0.13 mg/L
- IC80 (Titer in TZM.bl cells) [2]: 0.46 mg/L
- IC50 (Titer in TZM.bl cells) [3]: 0.61 mg/L
- IC80 (Titer in TZM.bl cells) [3]: 1.82 mg/L
- IC50 (Titer in TZM.bl cells) [4]: > 50 mg/L
- IC80 (Titer in TZM.bl cells) [4]: > 50 mg/L
- IC50 (Titer in TZM.bl cells) [15]: 0.12 mg/L
- IC80 (Titer in TZM.bl cells) [15]: 0.74 mg/L
- IC50 (Titer in TZM.bl cells) [6]: 0.08 mg/L
- IC80 (Titer in TZM.bl cells) [6]: 0.265 mg/L
- IC50 (Titer in TZM.bl cells) [16]: 0.11 mg/L
- IC80 (Titer in TZM.bl cells) [16]: 0.32 mg/L
- IC50 (Titer in TZM.bl cells) [8]: 0.96 mg/L
- IC80 (Titer in TZM.bl cells) [8]: 4.68 mg/L
- IC50 (Titer in TZM.bl cells) [9]: 0.53 mg/L
- IC80 (Titer in TZM.bl cells) [9]: 1.84 mg/L
- IC50 (Titer in TZM.bl cells) [10]: 0.22 mg/L
- IC80 (Titer in TZM.bl cells) [10]: 1.2 mg/L
- IC50 (Titer in TZM.bl cells) [17]: 0.08 mg/L
- IC80 (Titer in TZM.bl cells) [17]: 0.32 mg/L
- IC50 (Titer in TZM.bl cells) [18]: 0.16 mg/L
- IC80 (Titer in TZM.bl cells) [18]: 0.42 mg/L
- IC50 (Titer in TZM.bl cells) [11]: 0.08 mg/L
- IC80 (Titer in TZM.bl cells) [11]: 0.21 mg/L
- IC50 (Titer in TZM.bl cells) [19]: 0.17 mg/L
- IC80 (Titer in TZM.bl cells) [19]: 0.58 mg/L
- IC50 (Titer in TZM.bl cells) [12]: 0.05 mg/L
- IC80 (Titer in TZM.bl cells) [12]: 0.23 mg/L
- IC50 (Titer in TZM.bl cells) [13]: 0.49 mg/L
- IC80 (Titer in TZM.bl cells) [13]: 1.6 mg/L
- IC50 (Titer in TZM.bl cells) [14]: 0.82 mg/L
- IC80 (Titer in TZM.bl cells) [14]: 2.8 mg/L

Substance: PG9 (antibody)
- IC50 [20]: 0.01 mg/L
- IC80 [20]: 0.03 mg/L
- IC50 [21]: 1.69 mg/L
- IC80 [21]: 9 mg/L
- IC50 [22]: > 50 mg/L
- IC80 [22]: > 50 mg/L
- IC50 [23]: 0.021 mg/L
- IC80 [23]: 0.06 mg/L
- IC50 [24]: 6.34 mg/L
- IC80 [24]: 38.3 mg/L
- IC50 [25]: 0.01 mg/L
- IC80 [25]: 0.026 mg/L
- IC50 [26]: 0.172 mg/L
- IC80 [26]: 0.605 mg/L
- IC50 [27]: 0.176 mg/L
- IC80 [27]: 0.627 mg/L
- IC50 [28]: 0.21 mg/L
- IC80 [28]: 0.484 mg/L
- IC50 [29]: 10.6 mg/L
- IC80 [29]: > 50 mg/L
- IC50 [30]: 0.005 mg/L
- IC80 [30]: 0.014 mg/L
- IC50 [31]: 0.022 mg/L
- IC80 [31]: 0.103 mg/L
- IC50 [32]: 0.029 mg/L
- IC80 [32]: 0.081 mg/L
- IC50 [33]: 0.196 mg/L
- IC80 [33]: 0.698 mg/L
- IC50 [34]: 4.6 mg/L
- IC80 [34]: 27 mg/L
- IC50 [35]: > 50 mg/L
- IC80 [35]: > 50 mg/L
- IC50 [36]: > 50 mg/L
- IC80 [36]: > 50 mg/L

Substance: N49P18.1 (antibody)
- IC50 [1]: 1.88 mg/L
- IC80 [1]: 6.81 mg/L
- MPI [1]: 100
- IC50 [2]: 5.71 mg/L
- IC80 [2]: 23.1 mg/L
- MPI [2]: 94
- IC50 [3]: 35.2 mg/L
- IC80 [3]: > 50 mg/L
- MPI [3]: 60
- IC50 [4]: > 50 mg/L
- IC80 [4]: > 50 mg/L
- MPI [4]: 11
- IC50 [5]: 1.33 mg/L
- IC80 [5]: 6.36 mg/L
- MPI [5]: 100
- IC50 [6]: 14.1 mg/L
- IC80 [6]: 43.4 mg/L
- MPI [6]: 84
- IC50 [7]: 39.7 mg/L
- IC80 [7]: > 50 mg/L
- MPI [7]: 56
- IC50 [8]: 10.4 mg/L
- IC80 [8]: 48 mg/L
- MPI [8]: 82
- IC50 [9]: 4.15 mg/L
- IC80 [9]: 11.6 mg/L
- MPI [9]: 98
- IC50 [10]: 9.65 mg/L
- IC80 [10]: 40.2 mg/L
- MPI [10]: 84
- IC50 [11]: 4.44 mg/L
- IC80 [11]: 14.7 mg/L
- MPI [11]: 99
- IC50 [12]: 4.16 mg/L
- IC80 [12]: 19.8 mg/L
- MPI [12]: 98
- IC50 [13]: 24.7 mg/L
- IC80 [13]: > 50 mg/L
- MPI [13]: 68
- IC50 [14]: 16.1 mg/L
- IC80 [14]: 49.1 mg/L
- MPI [14]: 83

Source: patent publication US20240117018A1
